In this experiment the target is hic1_human HIC1 (UniProt Q14526).
Sequence of hic1_human HIC1 (Q14526 whole entry): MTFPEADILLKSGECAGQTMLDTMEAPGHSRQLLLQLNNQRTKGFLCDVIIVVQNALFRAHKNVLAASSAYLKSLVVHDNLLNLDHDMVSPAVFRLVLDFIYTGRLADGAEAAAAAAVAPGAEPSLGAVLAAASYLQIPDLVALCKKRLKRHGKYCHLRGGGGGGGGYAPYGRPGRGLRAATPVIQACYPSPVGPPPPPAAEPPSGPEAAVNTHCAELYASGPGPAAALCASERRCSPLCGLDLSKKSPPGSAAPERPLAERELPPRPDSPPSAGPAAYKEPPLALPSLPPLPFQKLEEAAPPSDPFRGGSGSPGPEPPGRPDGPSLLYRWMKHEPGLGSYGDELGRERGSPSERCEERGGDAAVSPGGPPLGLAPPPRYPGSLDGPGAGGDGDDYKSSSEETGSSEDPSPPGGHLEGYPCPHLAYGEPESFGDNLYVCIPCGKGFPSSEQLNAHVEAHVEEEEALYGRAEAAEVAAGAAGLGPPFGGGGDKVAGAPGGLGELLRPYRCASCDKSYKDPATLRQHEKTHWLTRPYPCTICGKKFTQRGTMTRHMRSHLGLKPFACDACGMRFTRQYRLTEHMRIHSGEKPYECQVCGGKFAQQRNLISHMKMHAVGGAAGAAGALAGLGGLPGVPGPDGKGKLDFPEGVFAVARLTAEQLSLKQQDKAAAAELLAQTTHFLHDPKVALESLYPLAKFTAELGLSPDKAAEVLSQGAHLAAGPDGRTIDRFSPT

Sequence of C-terminal-binding protein 2 (Mus musculus), P56546 V72R (P56546 whole entry V72R): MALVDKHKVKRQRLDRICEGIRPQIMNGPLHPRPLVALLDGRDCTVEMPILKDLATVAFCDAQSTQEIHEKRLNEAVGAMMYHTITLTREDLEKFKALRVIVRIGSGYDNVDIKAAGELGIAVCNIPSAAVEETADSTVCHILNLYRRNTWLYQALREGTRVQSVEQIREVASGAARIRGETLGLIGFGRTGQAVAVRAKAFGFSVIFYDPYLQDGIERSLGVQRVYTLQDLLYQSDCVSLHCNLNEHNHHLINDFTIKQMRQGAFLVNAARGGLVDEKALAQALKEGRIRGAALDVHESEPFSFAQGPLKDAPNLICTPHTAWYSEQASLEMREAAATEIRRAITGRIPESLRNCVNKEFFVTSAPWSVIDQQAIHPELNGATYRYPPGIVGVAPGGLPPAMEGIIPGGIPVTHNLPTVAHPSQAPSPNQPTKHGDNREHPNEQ
Sequence of C-terminal-binding protein 2 (Mus musculus), P56546 A58E (P56546 whole entry A58E): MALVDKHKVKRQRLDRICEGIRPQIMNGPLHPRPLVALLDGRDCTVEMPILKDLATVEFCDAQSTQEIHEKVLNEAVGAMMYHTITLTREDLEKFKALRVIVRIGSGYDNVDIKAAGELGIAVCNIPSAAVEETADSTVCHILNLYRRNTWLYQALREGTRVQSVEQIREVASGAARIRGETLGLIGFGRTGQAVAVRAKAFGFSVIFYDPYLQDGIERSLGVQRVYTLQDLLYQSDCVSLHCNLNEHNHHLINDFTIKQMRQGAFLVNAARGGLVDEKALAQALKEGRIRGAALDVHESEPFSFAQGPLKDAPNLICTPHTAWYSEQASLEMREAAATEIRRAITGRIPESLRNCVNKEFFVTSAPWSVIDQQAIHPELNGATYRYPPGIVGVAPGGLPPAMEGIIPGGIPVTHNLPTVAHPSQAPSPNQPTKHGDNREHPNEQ

“C-terminal-binding protein 2 (Mus musculus), P56546 A58E”: the “effect of a mutation on the interaction” value is listed as “disrupting interaction”.

Take “C-terminal-binding protein 2 (Mus musculus), P56546 V72R”: the “effect of a mutation on the interaction” value is reported as “disrupting interaction”.

Values taken from IntAct's records for PubMed 16762039.
